Substitutions are numbered along the chain they refer to.

For this assay, the target named is T1, human CD33 expressed on cells (human, UniProt P20138 18-364).
T1 construct: endogenous CD33 of human AML cell lines and blood monocytes; also called cell-expressed CD33 (Molm-13, Mv4-11, monocytes)
Briefly: flow cytometry on Molm-13 cells, fluorophore-conjugated anti-human IgG secondary antibody, MFI as fold over background (FOB).

T1 sequence (P20138 18-364): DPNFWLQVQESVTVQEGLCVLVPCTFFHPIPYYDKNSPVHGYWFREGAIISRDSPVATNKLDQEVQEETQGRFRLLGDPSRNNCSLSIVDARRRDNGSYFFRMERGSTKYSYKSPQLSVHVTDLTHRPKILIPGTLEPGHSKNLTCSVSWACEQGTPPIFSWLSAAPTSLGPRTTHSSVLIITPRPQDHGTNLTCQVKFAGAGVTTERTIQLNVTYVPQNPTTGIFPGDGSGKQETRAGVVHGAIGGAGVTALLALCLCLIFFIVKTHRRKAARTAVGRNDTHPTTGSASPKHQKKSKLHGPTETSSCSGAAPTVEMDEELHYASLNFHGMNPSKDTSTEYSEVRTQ
Protocol: Binding of the TriNKET was detected using a fluorophore conjugated anti-human IgG secondary antibody. Cells were analyzed by flow cytometry, binding MFI to cell expressed CD33 was normalized to secondary antibody controls to obtain fold over background values.

B1: A49.H76 (bispecific antibody)
NKG2D-binding VH: EVQLVESGGGLVKPGGSLRLSCAASGFTFSSYSMNWVRQAPGKGLEWVSSISSSSSYIYYADSVKGRFTISRDNAKNSLYLQMNSLRAEDTAVYYCARGAPMGAAAGWFDPWGQGTLVTVSS
NKG2D-binding VL: DIQMTQSPSSVSASVGDRVTITCRASQGISSWLAWYQQKPGKAPKLLIYAASSLQSGVPSRFSGSGSGTDFTLTISSLQPEDFATYYCQQGVSFPRTFGGGTKVEIK
CD33-binding VH: EVQLLESGGGLVQPGGSLRLSCAASGFTFSKYTMSWVRQAPGKGLEWVSAIVGSGESTYFADSVKGRFTISRDNSKNTLYLQMNSLRAEDTAVYYCAREGGPYYDSSGYFVYYGMDVWGQGTTVTVSS
CD33-binding VL: DIQMTQSPSTLSASVGDRVTITCRASQSISSWLAWYQQKPGKAPKLLIYKASSLESGVPSRFSGSGSGTEFTLTISSLQPDDFATYYCQQYDDLPTFGGGTKVEIK
With B1, the binding result is “binds”.

B2: A40.H76 (bispecific antibody)
NKG2D-binding VH: QVQLQQWGAGLLKPSETLSLTCAVYGGSFSGYYWSWIRQPPGKGLEWIGEIDHSGSTNYNPSLKSRVTISVDTSKNQFSLKLSSVTAADTAVYYCARARGPWSFDPWGQGTLVTVSS
NKG2D-binding VL: B1 CD33-binding VL with S30G, D92H, D93S, L94F, P95Y
CD33-binding VH: B1 CD33-binding VH
CD33-binding VL: B1 CD33-binding VL
With B2, the binding result was “binds”.

B3: A49.I07 (bispecific antibody)
NKG2D-binding VH: B1 NKG2D-binding VH
NKG2D-binding VL: B1 NKG2D-binding VL
CD33-binding VH: EVQLVESGGGLVQPGGSLRLSCAASGFTFGSYWMSWVRQAPGKGLEWVATIKQDGSEKSYVDSVKGRFTISRDNAKNSLYLQMNSLRAEDTAVYYCARPLNAGELDVWGQGTMVTVSS
CD33-binding VL: DIQMTQSPSTLSASVGDRVTITCRASQSISSWLAWYQQKPGKAPKLLIYEASSLESGVPSRFSGSGSGTEFTLTISSLQPDDFATYYCQQSQSYPPITFGGGTKVEIK
For B3, the binding result is “binds”.

B4: C26.G59 (bispecific antibody)
NKG2D-binding VH: B2 NKG2D-binding VH
NKG2D-binding VL: B1 NKG2D-binding VL with S10T, V11L, G28S, A50K, Q55E, D70E, E81D, G91Y, V92G, R96I
CD33-binding VH: EVQLVESGGGLVQPGGSLRLSCAASGFTFSSYGMSWVRQAPGKGLEWVANIKQDGSEKYYVDSVKGRFTISRDNAKNSLYLQMNSLRAEDTAVYYCAREGGPYYDSSGYFVYYGMDVWGQGTTVTVSS
CD33-binding VL: B1 CD33-binding VL with K50D, D92E, D93S, L94F
For the molecule B4, the binding result is listed as “binds”.

B5: C26.I35 (bispecific antibody)
NKG2D-binding VH: B2 NKG2D-binding VH
NKG2D-binding VL: B1 NKG2D-binding VL with S10T, V11L, G28S, A50K, Q55E, D70E, E81D, G91Y, V92G, R96I
CD33-binding VH: QLQLQESGPGLVKPSETLSLTCTVSGGSISSTDYYWGWIRQPPGKGLEWIGSIGYSGTYYNPSLKSRVTISVDTSKNQFSLKLSSVTAADTAVYYCARETAHDVHGMDVWGQGTTVTVSS
CD33-binding VL: EIVLTQSPATLSLSPGERATLSCRASHSVYSYLAWYQQKPGQAPRLLIYDASNRATGIPARFSGSGSGTDFTLTISSLEPEDFAVYYCQQYDNLPTFGGGTKVEIK
Turning to B5, the binding result is given as “binds”.

B6: C26.H76 (bispecific antibody)
NKG2D-binding VH: B2 NKG2D-binding VH
NKG2D-binding VL: B1 NKG2D-binding VL with S10T, V11L, G28S, A50K, Q55E, D70E, E81D, G91Y, V92G, R96I
CD33-binding VH: B1 CD33-binding VH
CD33-binding VL: B1 CD33-binding VL
On to B6, for which the binding result is reported as “binds”.

B7: A49.I35 (bispecific antibody)
NKG2D-binding VH: B1 NKG2D-binding VH
NKG2D-binding VL: B1 NKG2D-binding VL
CD33-binding VH: B5 CD33-binding VH
CD33-binding VL: B5 CD33-binding VL
Take B7: the binding result was “binds”.

B8: A40.G59 (bispecific antibody)
NKG2D-binding VH: B2 NKG2D-binding VH
NKG2D-binding VL: B1 CD33-binding VL with S30G, D92H, D93S, L94F, P95Y
CD33-binding VH: B4 CD33-binding VH
CD33-binding VL: B1 CD33-binding VL with K50D, D92E, D93S, L94F
Regarding B8, the binding result was “binds”.

B9: C26.I07 (bispecific antibody)
NKG2D-binding VH: B2 NKG2D-binding VH
NKG2D-binding VL: B1 NKG2D-binding VL with S10T, V11L, G28S, A50K, Q55E, D70E, E81D, G91Y, V92G, R96I
CD33-binding VH: B3 CD33-binding VH
CD33-binding VL: B3 CD33-binding VL
Consider B9, for which the binding result is “binds”.

B10: F47.H76 (bispecific antibody)
NKG2D-binding VH: B2 NKG2D-binding VH
NKG2D-binding VL: B1 CD33-binding VL with D93T, L94F, P95I
CD33-binding VH: B1 CD33-binding VH
CD33-binding VL: B1 CD33-binding VL
For B10, the binding result was “binds”.

B11: F47.G59 (bispecific antibody)
NKG2D-binding VH: B2 NKG2D-binding VH
NKG2D-binding VL: B1 CD33-binding VL with D93T, L94F, P95I
CD33-binding VH: B4 CD33-binding VH
CD33-binding VL: B1 CD33-binding VL with K50D, D92E, D93S, L94F
For B11, the binding result is listed as “binds”.

These data come from US20220380459A1 (DRAGONFLY THERAPEUTICS, published 2022).
